Results taken from the supplement of paper PMC5998384.

Tests used:
HeLa Kyoto [1] = assay: solubility change mitosis vs G1/S (difference of NP-40 vs SDS log2 ratios) (log2 ratio difference); higher = more soluble in mitosis
HeLa Kyoto [2] = assay: melting temperature (median over replicates), in situ; higher = more thermally stable
HeLa Kyoto [3] = assay: solubility in G1/S (NP-40 vs SDS abundance) (log2 ratio); higher = more soluble; conditions: cell cycle stage: G1/S
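Throughout, for melting temperature (median over replicates), in situ: HeLa Kyoto cells synchronized by double thymidine or nocodazole block, proteins quantified by TMT10plex mass spectrometry, three independent biological replicates.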
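Throughout, for solubility change mitosis vs G1/S (difference of NP-40 vs SDS log2 ratios): synchronized HeLa Kyoto cells (double thymidine block for G1/S, nocodazole release for mitosis), protein amounts in NP-40 versus SDS lysates quantified by mass spectrometry, three biological replicates.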
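Throughout, for solubility in G1/S (NP-40 vs SDS abundance): HeLa Kyoto cells arrested at G1/S by double thymidine block, proteins quantified by TMT10plex mass spectrometry in mild NP-40 versus SDS extracts, three biological replicates.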

| Substance | solubility change mitosis (log2) (HeLa Kyoto [1]) | melting temperature (HeLa Kyoto [2]; cell cycle stage: G1/S) [°C] | melting temperature (HeLa Kyoto [2]; cell cycle stage: mitosis) [°C] | solubility in G1/S (log2) (HeLa Kyoto [3]) |
| --- | --- | --- | --- | --- |
| MEQAPNMAEPRGPVDHGVQIRFITEPVSGAEMGTLRRGGRRPAKDARASTYGVAVRVQGIAGQPFVVLNSGEKGGDSFGVQIKGANDQGASGALSSDLELPENPYSQVKGFPAPSQSSTSDEEPGAYWNGKLLRSHSQASLAGPGPVDPSNRSNSMLELAPKVASPGSTIDTAPLSSVDSLINKFDSQLGGQARGRTGRRTRMLPPEQRKRSKSLDSRLPRDTFEERERQSTNHWTSSTKYDNHVGTSKQPAQSQNLSPLSGFSRSRQTQDWVLQSFEEPRRSAQDPTMLQFKSTPDLLRDQQEAAPPGSVDHMKATIYGILREGSSESETSVRRKVSLVLEKMQPLVMVSSGSTKAVAGQGELTRKVEELQRKLDEEVKKRQKLEPSQVGLERQLEEKTEECSRLQELLERRKGEAQQSNKELQNMKRLLDQGEDLRHGLETQVMELQNKLKHVQGPEPAKEVLLKDLLETRELLEEVLEGKQRVEEQLRLRERELTALKGALKEEVASRDQEVEHVRQQYQRDTEQLRRSMQDATQDHAVLEAERQKMSALVRGLQRELEETSEETGHWQSMFQKNKEDLRATKQELLQLRMEKEEMEEELGEKIEVLQRELEQARASAGDTRQVEVLKKELLRTQEELKELQAERQSQEVAGRHRDRELEKQLAVLRVEADRGRELEEQNLQLQKTLQQLRQDCEEASKAKMVAEAEATVLGQRRAAVETTLRETQEENDEFRRRILGLEQQLKETRGLVDGGEAVEARLRDKLQRLEAEKQQLEEALNASQEEEGSLAAAKRALEARLEEAQRGLARLGQEQQTLNRALEEEGKQREVLRRGKAELEEQKRLLDRTVDRLNKELEKIGEDSKQALQQLQAQLEDYKEKARREVADAQRQAKDWASEAEKTSGGLSRLQDEIQRLRQALQASQAERDTARLDKELLAQRLQGLEQEAENKKRSQDDRARQLKGLEEKVSRLETELDEEKNTVELLTDRVNRGRDQVDQLRTELMQERSARQDLECDKISLERQNKDLKTRLASSEGFQKPSASLSQLESQNQLLQERLQAEEREKTVLQSTNRKLERKVKELSIQIEDERQHVNDQKDQLSLRVKALKRQVDEAEEEIERLDGLRKKAQREVEEQHEVNEQLQARIKSLEKDSWRKASRSAAESALKNEGLSSDEEFDSVYDPSSIASLLTESNLQTSSC [CGN] | 0.648 | 53.6 | 53.6 | -0.601 |
| MGPRARPALLLLMLLQTAVLQGRLLRSHSLHYLFMGASEQDLGLSLFEALGYVDDQLFVFYDHESRRVEPRTPWVSSRISSQMWLQLSQSLKGWDHMFTVDFWTIMENHNHSKESHTLQVILGCEMQEDNSTEGYWKYGYDGQDHLEFCPDTLDWRAAEPRAWPTKLEWERHKIRARQNRAYLERDCPAQLQQLLELGRGVLDQQVPPLVKVTHHVTSSVTTLRCRALNYYPQNITMKWLKDKQPMDAKEFEPKDVLPNGDGTYQGWITLAVPPGEEQRYTCQVEHPGLDQPLIVIWEPSPSGTLVIGVISGIAVFVVILFIGILFIILRKRQGSRGAMGHYVLAERE [HFE] | 0.0716 | 55.9 | 57.2 | 0.207 |
| MPVTVTRTTITTTTTSSSGLGSPMIVGSPRALTQPLGLLRLLQLVSTCVAFSLVASVGAWTGSMGNWSMFTWCFCFSVTLIILIVELCGLQARFPLSWRNFPITFACYAALFCLSASIIYPTTYVQFLSHGRSRDHAIAATFFSCIACVAYATEVAWTRARPGEITGYMATVPGLLKVLETFVACIIFAFISDPNLYQHQPALEWCVAVYAICFILAAIAILLNLGECTNVLPIPFPSFLSGLALLSVLLYATALVLWPLYQFDEKYGGQPRRSRDVSCSRSHAYYVCAWDRRLAVAILTAINLLAYVADLVHSAHLVFVKV [MYADM] | -0.0179 | 52.9 | 53 | -0.352 |
| NBEAL2 | -0.0719 | 52 | – | -0.103 |
| MDLPVGPGAAGPSNVPAFLTKLWTLVSDPDTDALICWSPSGNSFHVFDQGQFAKEVLPKYFKHNNMASFVRQLNMYGFRKVVHIEQGGLVKPERDDTEFQHPCFLRGQEQLLENIKRKVTSVSTLKSEDIKIRQDSVTKLLTDVQLMKGKQECMDSKLLAMKHENEALWREVASLRQKHAQQQKVVNKLIQFLISLVQSNRILGVKRKIPLMLNDSGSAHSMPKYSRQFSLEHVHGSGPYSAPSPAYSSSSLYAPDAVASSGPIISDITELAPASPMASPGGSIDERPLSSSPLVRVKEEPPSPPQSPRVEEASPGRPSSVDTLLSPTALIDSILRESEPAPASVTALTDARGHTDTEGRPPSPPPTSTPEKCLSVACLDKNELSDHLDAMDSNLDNLQTMLSSHGFSVDTSALLDLFSPSVTVPDMSLPDLDSSLASIQELLSPQEPPRPPEAENSSPDSGKQLVHYTAQPLFLLDPGSVDTGSNDLPVLFELGEGSYFSEGDGFAEDPTISLLTGSEPPKAKDPTVS [HSF1] | -0.148 | 47.9 | 49.8 | 0.523 |
| MARDLIGPALPPGFKARGTAEDEERDPSPVAGPALPPNYKSSSSDSSDSDEDSSSLYEEGNQESEEDDSGPTARKQRKNQDDDDDDDDGFFGPALPPGFKKQDDSPPRPIIGPALPPGFIKSTQKSDKGRDDPGQQETDSSEDEDIIGPMPAKGPVNYNVTTEFEKRAQRMKEKLTKGDDDSSKPIVRESWMTELPPEMKDFGLGPRTFKRRADDTSGDRSIWTDTPADRERKAKETQEARKSSSKKDEEHILSGRDKRLAEQVSSYNESKRSESLMDIHHKKLKSKAAEDKNKPQERIPFDRDKDLKVNRFDEAQKKALIKKSRELNTRFSHGKGNMFL [GPALPP1] | 0.245 | 55.1 | 56.1 | 0.0784 |
| CHD9 | 0.0275 | – | 50.1 | -0.312 |
